The target of series [1] is T1, HUB2, At1g55250, Arabidopsis thaliana (Arabidopsis thaliana, UniProt Q9C895 1-900).
T1 construct: As prey the endogenous protein of Arabidopsis cell culture; as bait N-terminal GS-TAP fusion; in yeast two-hybrid an AD fusion; also called AAG51572.1
T1 sequence: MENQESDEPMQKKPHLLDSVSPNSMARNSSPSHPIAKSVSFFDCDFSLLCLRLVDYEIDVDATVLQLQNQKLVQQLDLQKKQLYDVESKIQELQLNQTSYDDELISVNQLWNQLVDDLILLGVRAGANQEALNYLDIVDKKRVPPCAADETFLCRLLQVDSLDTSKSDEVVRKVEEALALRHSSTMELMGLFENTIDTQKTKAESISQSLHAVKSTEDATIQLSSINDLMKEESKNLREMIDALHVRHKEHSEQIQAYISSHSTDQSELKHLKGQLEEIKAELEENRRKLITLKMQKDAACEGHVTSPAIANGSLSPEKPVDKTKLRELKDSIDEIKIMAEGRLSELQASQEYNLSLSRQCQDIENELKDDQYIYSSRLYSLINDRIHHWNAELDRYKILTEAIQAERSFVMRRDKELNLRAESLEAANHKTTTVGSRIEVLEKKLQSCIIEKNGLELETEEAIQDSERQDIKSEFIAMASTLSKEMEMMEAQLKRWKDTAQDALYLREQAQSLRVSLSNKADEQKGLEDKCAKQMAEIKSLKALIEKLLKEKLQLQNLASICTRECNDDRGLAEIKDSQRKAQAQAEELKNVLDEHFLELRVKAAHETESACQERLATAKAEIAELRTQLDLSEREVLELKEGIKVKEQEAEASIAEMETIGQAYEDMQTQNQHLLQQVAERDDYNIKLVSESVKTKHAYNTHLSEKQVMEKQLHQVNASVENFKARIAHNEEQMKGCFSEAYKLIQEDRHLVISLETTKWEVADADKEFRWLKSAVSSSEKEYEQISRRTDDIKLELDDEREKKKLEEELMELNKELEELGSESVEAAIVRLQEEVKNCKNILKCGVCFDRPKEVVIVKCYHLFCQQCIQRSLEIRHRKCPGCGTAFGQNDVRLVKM
The experiment in a line: tandem affinity purification with NTAP-tagged HUB1pm. Here is the method:
Because the RING proteins have their functionally important domain at the C-terminus, an N-terminal fusion was prepared instead of the traditional C-terminal fusion by cloning both full length and the point mutant form of HUB1 (HUB1pm, HUB1fl). The Arabidopsis cell cultures were transformed with the two constructs and cultivated on 10 litre scale, harvested and purified by TAP (Van Leene et al., Mol. Cell. Proteomics 6, 1226-38, 2007). The protein extracts were separated on 1-D SDS-PAGE gels and isolated from gel for protein identification by mass spectrometry (Laukens et al., Proteomics. 4, 720-7, 2004, Van Leene et al., 2007). Two cut offs were used resulting in “confirmed” and “to be confirmed” candidate interactor lists (Table I).
In the data set of confirmed interactors TAP HUB1 and HUB2 were present, […] the dimer formation between the homologues. In addition, the acetyltransferase GCN5, RNA binding proteins and a KH domain protein were identified as HUB1 interacting proteins. Most of these proteins are known to be localized in nucleus or nucleoli. GFP constructs of HUB1 have also been localized to nucleus (Liu et al., 2007). When HUB1pm was used for TAP purification no HUB2 could be identified as an interacting protein.

B1: HUB1pm (HUB1 point mutant, Cys residues nr 1 and 2 of the C3HC4 RING domain changed into Ser) (enzyme)
chain: MASTGEPDRKRRHFSSISPSEAAAAVKKQPFFWPSSEDKLDTAVLQFQNLKLSQKLEAQQVECSILEDKLSQIKEKQLPYNSSLKTVHKSWEKLTASVESCSVRVSDSSSGAHRFVNKEDGSSPAVKNDFINRLLETGATESSSSNICSNQMEENGVNTSSQMTQTLYNLVAATEDLRCLKDELYPTVLRTNLGKDLCGQLALSELESEIKSFRGDLDDVLVKFKSLSRELQSHRDADAKVRVDLKRIRGELEDEVVELQQCNGDLSALRAERDATAGAFFPVLSLGNKLATSDRERDKQRDLQDMETVLKELTVLASGRLQQLKNLHEERTKMLGKMSNLQNKSKSVRCISSSQACLSLKDQLEKSKEAVFQYMALLEKLQVEKDSIVWKEREINIKNELGDVSRKTSAVTDSRMASLDSEIQKQLDEKMRIKTRLGNISRERGRKEIFADMKALISSFPEEMSSMRSQLNNYKETAGGIHSLRADVQSLSGVLCRKTKEYEALQLRSADYASQLGDLNATVCDLKNSHEELKLFLDMYKRESTDARDIAEAKEQEYRAWAHVQSLKSSLDEQNLELRVKAANEAEAVSQQMLAAAEAEIADLRQKMDDCKRDVAKHSDILKSKHEEHGTYLSEIQTIGSAYEDIVPQNQRLLLQVTERDDYNIKLFLEGITSRQMQDTLLIDKYIMDKDIQQGSAYASFLSKKSSRIEDQLRFCTDQFQKLAEDKYQKSVSLENLQKKRADIGNGLEQARSRLEESHSKVEQSRLDYGALELELEIERFNRRRIEEEMEIAKKKVSRLRSLIEGSSAIQKLRQELSEFKEILKSKASNDRPKEVVITKCYHLFCNPCVQKLTGTRQKKCPTCSASFGPNDIKPIYI
notes: In TAP N-terminally TAP-tagged; also called HUBpm; At2g44950 Arabidopsis thaliana point mutation
On to B1, for which, in series [1], the binding result is listed as “no binding”. Also, in the series with histone H2B, the “monoubiquitination of histone H2B in the in vitro ubiquitination assay (protein gel blot)” value is on record as “shift of H2B by 10 kDa”.

Values taken from US20110162109A1 (BASF PLANT SCIENCE, published 2011).
